Ends that are not written are not given here.
How the values were obtained:
[1] = biological target: Phage λ Orf63, 6xHis-Flag affinity tagged (phage λ); test: SEC-MALS
[2] = biological target: Phage λ Orf63, 6xHis-Flag affinity tagged (phage λ); test: BLI

| Molecule | stoichiometry N [1] | Kd [2] |
| --- | --- | --- |
| Phage λ Orf63, 6xHis-Flag affinity tagged (natural protein) | 2 | – |
| GGLVPRGSGDTKELILAIARKVKEMIKNS (designed binder, also: fused to 6xHis-tagged ubiquitin) [6xHis-tagged ubiquitin fusion protein with the designed Orf63 binding peptide] | – | > 20 µM |
